Experimental findings from paper PMC4265154, “A reversible Renilla luciferase protein complementation assay for rapid identification of protein–protein interactions reveals the existence of an interaction network involved in xyloglucan biosynthesis in the plant Golgi apparatus” (Journal of Experimental Botany, 2014) are described below.

First the molecules themselves.
B1: ARABINAN DEFICIENT1 (ARAD1) fused to hRluc fragment [F1] or [F2] (natural protein, Arabidopsis thaliana, UniProt Q6DBG8 1-447, looked up)
chain: MARKSSLLKRAAIAVVSVIAIYVILNASVSRSLPSSSDLPRQLIREDDDDEGRAPIQPRVRVYMYNLPKRFTYGLIEQHSIARGGIKKPVGDVTTLKYPGHQHMHEWYLFSDLNQPEVDRSGSPIVRVSDPADADLFYVPVFSSLSLIVNAGRPVEAGSGYSDEKMQEGLVEWLEGQEWWRRNAGRDHVIPAGDPNALYRILDRVKNAVLLVSDFGRLRPDQGSFVKDVVIPYSHRVNLFNGEIGVEDRNTLLFFMGNRYRKDGGKVRDLLFQVLEKEDDVTIKHGTQSRENRRAATKGMHTSKFCLNPAGDTPSACRLFDSIVSLCVPLIVSDSIELPFEDVIDYRKFSIFVEANAALQPGFLVQMLRKIKTKKILEYQREMKSVRRYFDYDNPNGAVKEIWRQVSHKLPLIKLMSNRDRRLVLRNLTEPNCSCLCTNQTGLITSI
notes: Made in two forms, one with [F1]-HA and one with [F2]-FLAG; a chain carries one of the two; also called ARAD1-[F1]; ARAD1-[F2]; source: N. benthamiana leaves, transient expression (A. tumefaciens GV3101, with p19), in crude leaf macerate; not shown: hRluc[F1]; (Renilla luciferase residues 1-110) with HA, C-terminal, kept; hRluc[F2]; (Renilla luciferase residues 111-310) with FLAG, C-terminal, kept
B2: MURUS3/KATAMARI1 (MUR3) fused to hRluc fragment [F1] or [F2] (natural protein, Arabidopsis thaliana, UniProt Q7XJ98 1-619, looked up)
chain: MFPRVSMRRRSAEVSPTEPMEKGNGKNQTNRICLLVALSLFFWALLLYFHFVVLGTSNIDKQLQLQPSYAQSQPSSVSLRVDKFPIEPHAAPSKPPPKEPLVTIDKPILPPAPVANSSSTFKPPRIVESGKKQEFSFIRALKTVDNKSDPCGGKYIYVHNLPSKFNEDMLRDCKKLSLWTNMCKFTTNAGLGPPLENVEGVFSDEGWYATNQFAVDVIFSNRMKQYKCLTNDSSLAAAIFVPFYAGFDIARYLWGYNISRRDAASLELVDWLMKRPEWDIMRGKDHFLVAGRITWDFRRLSEEETDWGNKLLFLPAAKNMSMLVVESSPWNANDFGIPYPTYFHPAKDSEVFEWQDRMRNLERKWLFSFAGAPRPDNPKSIRGQIIDQCRNSNVGKLLECDFGESKCHAPSSIMQMFQSSLFCLQPQGDSYTRRSAFDSMLAGCIPVFFHPGSAYTQYTWHLPKNYTTYSVFIPEDDVRKRNISIEERLLQIPAKQVKIMRENVINLIPRLIYADPRSELETQKDAFDVSVQAVIDKVTRLRKNMIEGRTEYDYFVEENSWKYALLEEGQREAGGHVWDPFFSKPKPGEDGSSDGNGGTTISADAAKNSWKSEQRDKTQ
notes: Made in two forms, one with [F1]-HA and one with [F2]-FLAG; a chain carries one of the two; also called MUR3-[F1]; MUR3-[F2]; source: N. benthamiana leaves, transient expression (A. tumefaciens GV3101, with p19), in crude leaf macerate; not shown: hRluc[F1]; (Renilla luciferase residues 1-110) with HA, C-terminal, kept; hRluc[F2]; (Renilla luciferase residues 111-310) with FLAG, C-terminal, kept
B3: GALACTURONOSYLTRANSFERASE7 (GAUT7) fused to hRluc fragment [F1] or [F2] (natural protein, Arabidopsis thaliana, UniProt Q9ZVI7 1-619, looked up)
chain: MKGGGGGGGGGGGGKRRWKVLVIGVLVLVILSMLVPLAFLLGLHNGFHSPGFVTVQPASSFESFTRINATKHTQRDVSERVDEVLQKINPVLPKKSDINVGSRDVNATSGTDSKKRGLPVSPTVVANPSPANKTKSEASYTGVQRKIVSGDETWRTCEVKYGSYCLWREENKEPMKDAKVKQMKDQLFVARAYYPSIAKMPSQSKLTRDMKQNIQEFERILSESSQDADLPPQVDKKLQKMEAVIAKAKSFPVDCNNVDKKLRQILDLTEDEASFHMKQSVFLYQLAVQTMPKSLHCLSMRLTVEHFKSDSLEDPISEKFSDPSLLHFVIISDNILASSVVINSTVVHARDSKNFVFHVLTDEQNYFAMKQWFIRNPCKQSTVQVLNIEKLELDDSDMKLSLSAEFRVSFPSGDLLASQQNRTHYLSLFSQSHYLLPKLFDKLEKVVILDDDVVVQRDLSPLWDLDMEGKVNGAVKSCTVRLGQLRSLKRGNFDTNACLWMSGLNVVDLARWRALGVSETYQKYYKEMSSGDESSEAIALQASLLTFQDQVYALDDKWALSGLGYDYYINAQAIKNAAILHYNGNMKPWLELGIPNYKNYWRRHLSREDRFLSDCNVNP
notes: Made in two forms, one with [F1]-HA and one with [F2]-FLAG; a chain carries one of the two; also called GAUT7-[F1]; GAUT7-[F2]; source: N. benthamiana leaves, transient expression (A. tumefaciens GV3101, with p19), in crude leaf macerate; not shown: hRluc[F1]; (Renilla luciferase residues 1-110) with HA, C-terminal, kept; hRluc[F2]; (Renilla luciferase residues 111-310) with FLAG, C-terminal, kept
B4: GALACTURONOSYLTRANSFERASE1 (GAUT1) fused to hRluc fragment [F1] or [F2] (natural protein, Arabidopsis thaliana, UniProt Q9LE59 1-673, looked up)
chain: MALKRGLSGVNRIRGSGGGSRSVLVLLIFFCVFAPLCFFVGRGVYIDSSNDYSIVSVKQNLDWRERLAMQSVRSLFSKEILDVIATSTADLGPLSLDSFKKNNLSASWRGTGVDPSFRHSENPATPDVKSNNLNEKRDSISKDSIHQKVETPTKIHRRQLREKRREMRANELVQHNDDTILKLENAAIERSKSVDSAVLGKYSIWRRENENDNSDSNIRLMRDQVIMARVYSGIAKLKNKNDLLQELQARLKDSQRVLGEATSDADLPRSAHEKLRAMGQVLAKAKMQLYDCKLVTGKLRAMLQTADEQVRSLKKQSTFLAQLAAKTIPNPIHCLSMRLTIDYYLLSPEKRKFPRSENLENPNLYHYALFSDNVLAASVVVNSTIMNAKDPSKHVFHLVTDKLNFGAMNMWFLLNPPGKATIHVENVDEFKWLNSSYCPVLRQLESAAMREYYFKADHPTSGSSNLKYRNPKYLSMLNHLRFYLPEVYPKLNKILFLDDDIIVQKDLTPLWEVNLNGKVNGAVETCGESFHRFDKYLNFSNPHIARNFNPNACGWAYGMNMFDLKEWKKRDITGIYHKWQNMNENRTLWKLGTLPPGLITFYGLTHPLNKAWHVLGLGYNPSIDKKDIENAAVVHYNGNMKPWLELAMSKYRPYWTKYIKFDHPYLRRCNLHE
notes: Made in two forms, one with [F1]-HA and one with [F2]-FLAG; a chain carries one of the two; also called GAUT1-[F1]; GAUT1-[F2]; source: N. benthamiana leaves, transient expression (A. tumefaciens GV3101, with p19), in crude leaf macerate; not shown: hRluc[F1]; (Renilla luciferase residues 1-110) with HA, C-terminal, kept; hRluc[F2]; (Renilla luciferase residues 111-310) with FLAG, C-terminal, kept

Common to all, as to assay: split reporter (BiFC, NanoBiT); Rluc-PCA: proteins with C-terminal hRluc[F1]-HA and hRluc[F2]-FLAG co-expressed with p19 in N. benthamiana leaves for 72 h (Agrobacterium OD600 0.2 each, p19 0.05); pooled leaf discs macerated in 0.5 M NaCl, 0.1 M potassium phosphate pH 7.4, 1 mM EDTA, 0.02% BSA, protease inhibitors; 10 uM coelenterazine-h, luminescence 30 s; compared with p19 alone

Data set [1] deals with FUCO…1 (FUT1) fused to hRluc fragment [F1] or [F2] (Arabidopsis thaliana) (UniProt Q9SWH5).
Data set [2] deals with the molecule itself.
The target in data set [3] is B4. The conditions noted are these: partners not purified.
Data set [4] has as its target B3. The conditions noted are these: partners not purified.

FUCO…1 (FUT1) fused to hRluc fragment [F1] or [F2] (Arabidopsis thaliana), sequence (Q9SWH5 whole entry, the tested form may be a part): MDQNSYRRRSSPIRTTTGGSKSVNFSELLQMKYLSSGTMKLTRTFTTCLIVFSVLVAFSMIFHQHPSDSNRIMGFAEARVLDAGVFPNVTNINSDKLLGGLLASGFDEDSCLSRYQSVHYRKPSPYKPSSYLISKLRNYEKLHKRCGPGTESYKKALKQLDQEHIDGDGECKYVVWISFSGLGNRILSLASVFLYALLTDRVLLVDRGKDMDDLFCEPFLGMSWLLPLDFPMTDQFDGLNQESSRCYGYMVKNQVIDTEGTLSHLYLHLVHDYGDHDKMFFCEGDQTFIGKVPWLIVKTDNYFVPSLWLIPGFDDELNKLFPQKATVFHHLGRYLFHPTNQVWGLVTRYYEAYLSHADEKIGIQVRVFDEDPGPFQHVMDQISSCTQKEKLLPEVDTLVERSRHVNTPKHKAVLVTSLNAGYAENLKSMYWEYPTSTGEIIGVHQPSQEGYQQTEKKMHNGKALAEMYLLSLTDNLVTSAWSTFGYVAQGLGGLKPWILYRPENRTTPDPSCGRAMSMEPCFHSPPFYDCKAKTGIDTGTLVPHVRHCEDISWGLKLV

For “XXT5 fused to hRluc fragment [F1] or [F2] (from UniProt Q9CA75 1-457) (natural protein)”, the Log10(RLU) in data set [1] was 3.76 Log10(RLU).

On to B1, for which the “Log10(RLU)” value in data set [2] was 4.75 Log10(RLU). As to B2, in data set [2], the “Log10(RLU)” value was 4.75 Log10(RLU). For B3, the “Log10(RLU)” value in data set [3] is 4.71 Log10(RLU). For B4, in data set [4], the “Log10(RLU)” value was 4.71 Log10(RLU).
